US20220389120A1 (published 2022)

T1: recombinant human Ang2 (Biolegend) (human, UniProt O15123 19-496)
T1 chain: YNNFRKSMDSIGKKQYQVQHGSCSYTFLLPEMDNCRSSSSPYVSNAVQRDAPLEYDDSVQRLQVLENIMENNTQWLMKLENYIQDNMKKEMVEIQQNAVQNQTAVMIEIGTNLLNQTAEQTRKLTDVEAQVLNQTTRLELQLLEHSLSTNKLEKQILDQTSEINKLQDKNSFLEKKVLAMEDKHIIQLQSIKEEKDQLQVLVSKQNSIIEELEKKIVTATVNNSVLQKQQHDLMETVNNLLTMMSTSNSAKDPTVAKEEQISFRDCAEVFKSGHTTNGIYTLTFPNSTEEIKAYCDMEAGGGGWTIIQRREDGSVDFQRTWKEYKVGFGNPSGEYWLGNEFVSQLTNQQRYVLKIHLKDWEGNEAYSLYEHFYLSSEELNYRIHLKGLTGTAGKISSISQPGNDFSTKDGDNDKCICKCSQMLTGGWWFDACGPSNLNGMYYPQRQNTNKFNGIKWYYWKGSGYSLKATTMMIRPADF


Tests used:
[1] = molecular target: T1, recombinant human Ang2 (Biolegend); test: Ang2-Tie2 blocking ELISA; Test 1
[2] = molecular target: T1, recombinant human Ang2 (Biolegend); test: Ang2-Tie2 blocking ELISA; Test 2
[3] = molecular target: T1, recombinant human Ang2 (Biolegend); test: ELISA
PD-1 = PD-1 (UniProt Q15116 25-167); test: PD-1 blocking assay
PD-1, sequence (Q15116 25-167): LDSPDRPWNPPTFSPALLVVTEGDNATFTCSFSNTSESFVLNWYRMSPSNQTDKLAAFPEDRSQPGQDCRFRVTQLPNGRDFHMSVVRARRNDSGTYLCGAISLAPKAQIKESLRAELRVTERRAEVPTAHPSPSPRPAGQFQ

[4] = molecular target: T1, recombinant human Ang2 (Biolegend); test: Ang2-Tie2 blocking ELISA; Test 3

| IC50 [1] [pM] | IC50 [2] [pM] | EC50 [3] [µg/mL] | IC50 (PD-1) [pM] | IC50 [4] [pM] | Binder |
| --- | --- | --- | --- | --- | --- |
| 190 | 210 |  |  |  | A2Z-ld (Fc fusion) ESKYGPPCPPCPAPEFLGGPSVFLFPPKPKDTLMISRTPEVTCVVVDVSQEDPEVQFNWYVDGVEVHNAKTKPREEQFNSTYRVVSVLTVLHQDWLNGKEYKCKVSNKGLPSSIEKTISKAKGQPREPQVYTLPPSQEEMGGAQTNFMPMDDLEQRLYEQFILQQGGGGSGGGGSGGGGSGGGGSTNFMPMDDLEQRLYEQFILQQGLETKNQVSLTCLVKGFYPSDIAVEWESNGQPENNYKTTPPVLDSDGSFFLYSRLTVDKSRWQEGNVFSCSVMHEALHNHYTQKSLSLSLGKGGGGGAQSDTGRPFVEMYSEIPEIIHMTEGRELVIPCRVTSPNITVTLKKFPLDTLIPDGKRIIWDSRKGFIISNATYKEIGLLTCEATVNGHLYKTNYLTHRQTNTIIDVVLSPSHGIELSVGEKLVLNCTARTELNVGIDFNWEYPSSKHQHKKLVNRDLKTQSGSEMKKFLSTLTIDGVTRSDQGLYTCAASSGLMTKKNSTFVRVHEKLE |
|  |  | 0.211 | 272 |  | GS01-A (other) heavy: QVQLVQSGAEVKKPGASVKVSCKASGYTFTSYYIHWVRQAPGQGLEWMGWIFPGSGNSKYNENFKGRVTLTADTSTSTVYMELSSLRSEDTAVYYCASETYDYGDYWGQGTLVTVSSASTKGPSVFPLAPCSRSTSESTAALGCLVKDYFPEPVTVSWNSGALTSGVHTFPAVLQSSGLYSLSSVVTVPSSSLGTKTYTCNVDHKPSNTKVDKRVESKYGPPCPPCPAPEFLGGPSVFLFPPKPKDTLMISRTPEVTCVVVDVSQEDPEVQFNWYVDGVEVHNAKTKPREEQFNSTYRVVSVLTVLHQDWLNGKEYKCKVSNKGLPSSIEKTISKAKGQPREPQVYTLPPSQEEMGGAQTNFMPMDDLEQRLYEQFILQQGGGGSGGGGSGGGGSGGGGSTNFMPMDDLEQRLYEQFILQQGLETKNQVSLTCLVKGFYPSDIAVEWESNGQPENNYKTTPPVLDSDGSFFLYSRLTVDKSRWQEGNVFSCSVMHEALHNHYTQKSLSLSLGKGGGGSGGGGSGGGGSGGGGSEVQLVESGGGLVQPGGSLRLSCAASGFTISDYWIHWVRQAPGKGLEWVAGITPAGGYTYYADSVKGRFTISADTSKNTAYLQMNSLRAEDTAVYYCARFVFFLPYAMDYWGQGTLVTVSSGGGGSGGGGSGGGGSGGGGSDIQMTQSPSSLSASVGDRVTITCRASQDVSTAVAWYQQKPGKAPKLLIYSASFLYSGVPSRFSGSGSGTDFTLTISSLQPEDFATYYCQQGYGNPFTFGQGTKVEIK light: DIQMTQSPSFLSASVGDRVTITCKASQNVGTNVAWYQQKPGKAPKALIYSASYRYSGVPSRFSGSGSGTEFTLTISSLQPEDFATYYCQQYYSYPYTFGQGTKLEIKRTVAAPSVFIFPPSDEQLKSGTASVVCLLNNFYPREAKVQWKVDNALQSGNSQESVTEQDSKDSTYSLSSTLTLSKADYEKHKVYACEVTHQGLSSPVTKSFNRGEC |
|  |  |  |  | 100 | ZA2-ls (protein) SDTGRPFVEMYSEIPEIIHMTEGRELVIPCRVTSPNITVTLKKFPLDTLIPDGKRIIWDSRKGFIISNATYKEIGLLTCEATVNGHLYKTNYLTHRQTNTIIDVVLSPSHGIELSVGEKLVLNCTARTELNVGIDFNWEYPSSKHQHKKLVNRDLKTQSGSEMKKFLSTLTIDGVTRSDQGLYTCAASSGLMTKKNSTFVRVHEKESKYGPPCPPCPAPEFLGGPSVFLFPPKPKDTLMISRTPEVTCVVVDVSQEDPEVQFNWYVDGVEVHNAKTKPREEQFNSTYRVVSVLTVLHQDWLNGKEYKCKVSNKGLPSSIEKTISKAKGQPREPQVYTLPPSQEEMGGAQTNFMPMDDLEQRLYEQFILQQGLETKNQVSLTCLVKGFYPSDIAVEWESNGQPENNYKTTPPVLDSDGSFFLYSRLTVDKSRWQEGNVFSCSVMHEALHNHYTQKSLSLSLGK |
|  | 200 |  |  | 30 | ZA2-ld (protein) SDTGRPFVEMYSEIPEIIHMTEGRELVIPCRVTSPNITVTLKKFPLDTLIPDGKRIIWDSRKGFIISNATYKEIGLLTCEATVNGHLYKTNYLTHRQTNTIIDVVLSPSHGIELSVGEKLVLNCTARTELNVGIDFNWEYPSSKHQHKKLVNRDLKTQSGSEMKKFLSTLTIDGVTRSDQGLYTCAASSGLMTKKNSTFVRVHEKESKYGPPCPPCPAPEFLGGPSVFLFPPKPKDTLMISRTPEVTCVVVDVSQEDPEVQFNWYVDGVEVHNAKTKPREEQFNSTYRVVSVLTVLHQDWLNGKEYKCKVSNKGLPSSIEKTISKAKGQPREPQVYTLPPSQEEMGGAQTNFMPMDDLEQRLYEQFILQQGGGGSGGGGSGGGGSGGGGSTNFMPMDDLEQRLYEQFILQQGLETKNQVSLTCLVKGFYPSDIAVEWESNGQPENNYKTTPPVLDSDGSFFLYSRLTVDKSRWQEGNVFSCSVMHEALHNHYTQKSLSLSLGK |
